Laboratory results as given in article PMC4432310, “Different Ligands of the TRPV3 Cation Channel Cause Distinct Conformational Changes as Revealed by Intrinsic Tryptophan Fluorescence Quenching*” (The Journal of Biological Chemistry, 2015).

B1: human TRPV3 fused to C-terminal GFP and His8 tag (natural protein, UniProt Q8NET8 1-790, looked up)
chain: MKAHPKEMVPLMGKRVAAPSGNPAILPEKRPAEITPTKKSAHFFLEIEGFEPNPTVAKTSPPVFSKPMDSNIRQCISGNCDDMDSPQSPQDDVTETPSNPNSPSAQLAKEEQRRKKRRLKKRIFAAVSEGCVEELVELLVELQELCRRRHDEDVPDFLMHKLTASDTGKTCLMKALLNINPNTKEIVRILLAFAEENDILGRFINAEYTEEAYEGQTALNIAIERRQGDIAALLIAAGADVNAHAKGAFFNPKYQHEGFYFGETPLALAACTNQPEIVQLLMEHEQTDITSRDSRGNNILHALVTVAEDFKTQNDFVKRMYDMILLRSGNWELETTRNNDGLTPLQLAAKMGKAEILKYILSREIKEKRLRSLSRKFTDWAYGPVSSSLYDLTNVDTTTDNSVLEITVYNTNIDNRHEMLTLEPLHTLLHMKWKKFAKHMFFLSFCFYFFYNITLTLVSYYRPREEEAIPHPLALTHKMGWLQLLGRMFVLIWAMCISVKEGIAIFLLRPSDLQSILSDAWFHFVFFIQAVLVILSVFLYLFAYKEYLACLVLAMALGWANMLYYTRGFQSMGMYSVMIQKVILHDVLKFLFVYIVFLLGFGVALASLIEKCPKDNKDCSSYGSFSDAVLELFKLTIGLGDLNIQQNSKYPILFLFLLITYVILTFVLLLNMLIALMGETVENVSKESERIWRLQRARTILEFEKMLPEWLRSRFRMGELCKVAEDDFRLCLRINEVKWTEWKTHVSFLNEDPGPVRRTDFNKIQDSSRNNSKTTLNAFEEVEEFPETSV
notes: human TRPV3 (transient receptor potential vanilloid 3), full-length; theoretical mass of the monomer printed as 90.6 kDa; A PreScission cleavage site lies between TRPV3 and GFP-His8; The fusion is uncleaved in the FSEC runs; also called hTRPV3-GFP; hTRPV3; source: Sf9 insect cells (baculovirus), detergent-solubilized crude membranes, not purified; not shown: GFP, C-terminal, kept
B2: human TRPV3, detergent-purified, GFP-His tag cleaved off (natural protein, UniProt Q8NET8 1-790, looked up)
chain: B1 chain
notes: human TRPV3 (transient receptor potential vanilloid 3), full-length; theoretical mass of the monomer printed as 90.6 kDa; also called hTRPV3; detergent-purified hTRPV3; source: Sf9 insect cells (baculovirus), purified (GFP trap, PreScission cleavage, SEC) in DDM and CHAPS; not shown: GFP, C-terminal, cleaved; His8, C-terminal, cleaved

How the values were obtained:
[1] = target: the molecule itself; test: SEC; fluorescence detection SEC (FSEC) of detergent-solubilized crude Sf9 membranes on Superose 6 10/300 GL; buffer A (200 mM NaCl, 50 mM Tris, pH 7.5) with DM, DDM or LDAO at ~1.5 x CMC; oligomer judged from the retention volume
[2] = target: the molecule itself; test: SEC; UV detection SEC of hTRPV3 eluted from the GFP trap, Superose 6 10/300 GL; buffer B (100 mM NaCl, 10 mM Tris, pH 7.5) with 0.03% DDM and 0.1% CHAPS

Protein	stoichiometry N [1]	stoichiometry N [2]
B1	4	
B2		4
